From a protein production outcome set (Wang et al. 2014)

Experiment: label from the status in PepcDB records

| Sequence | protein production |
| --- | --- |
| MSENTKVEAKRVFIGAGCNRVVNNVSWGASGLVSFGAQNAVAVFCPKTAQILTTLPGHKASVNCTHWLPTSKFAFKAKKLDRQYLLSGDSDGIIILWELSTLNNDQQWRHVLQLPLSHKKGVTCITAYMVSETDAMFASASSDGVVNVWDVSFPSQPSEECKVVCLDSICVDTKAIVTLSLAELPQNPGRFALALGGLDNKIKLYSGERTGKFTSVCELKGHTDWIRSLDFSLPLHTTEEIPNSIMLVSSSQDKVIRIWKLVLVGDVGSWRREITLASYIEGPVFVSGTFTYQISVESVLIGHEDWVYSVEWQPPVIDFIDGRLVNHQPLSILSASMDKTMMIWRPEKKTGVWVNVVCVGELSHCALGFYGGHWSPNSLSILAHGYGGAFHLWRNVSSSKESENWQMQKVPSGHFAAVTDVTWARTGEYLLSVSQDQTTRVFSAWKNDEGNEAEDEHWHELARPQVHGHDINCVAMVQGKGNHRFVSGAEEKVVRVFEAPLSFLKTLNHTCAGGEGSFPEDLQADVQVLGANMSALGLSQKPIYLHSSSEPLERNGGGEGLDTFETVPEAAPAELKEPPIEDQLAFHTLWPESHKLYGHGNELFSLCSDHKGNLVASSCKAQSASMAEIWLWEVGTWKAVGRLQSHSLTVTHLEFSYDDTLLLSVSRDRHFSVFSIQRTDNGEVSHKLMAKVEAHKRIIWACSWNPFGHQFATSSRDKTVKIWSVENDARIKQILVLPPFGSSVTAVAWTGLDRNEKSGCVAVGMESGLIELSNVKIIETEEGTTATAALALRLEPFMCHVSAVNRLAWRPTEKCESNQSLRWLTSCGDDNCVRVFNFKF | failed |
| MSEPHRDTKIGQVLMNRYQLTELIGKGSMGRVYRAEDILLGGVPVAVKFLSQTLLNDRMKTRFAQEARAGALLGQKSMHVVRVLDYGMNNEEIPFYVMEFLEGENLSDLLLEEPLPLSRFLRIARHMCLGLQVAHEGIIIEGQKCPIIHRDIKPSNVLVIQDGTMGELAKLLDFGIAKFLGDVPEKGQTSSFMGTLAYCSPEQIEGRELDHRSDIYSLGITMYELLTGKMPIQAESHSIGSWFKAHHFQKPIPFNVASPGLHLPPALEELIMACMAKSPSDRPQNVAEIIKVLTALEDQFGSTRVTQPGVEVGAKVSQPLERQSQPPVALATVEEVCWQSVWPADKPVAEIVFPMPLYAQRESAASLWVMLPRSEIDRRMLNLRYNQFLFTTSPHPMILWITAIYDPQQGPRWLPCYLDMKLPRNQELCLLLSETGYYPLLFFSLEDPQHCINVRTFTIATFQRQLLRDWLQTSKNLPSSAPAVVSRNLLKAEFENYKPQILAKLENVKMATVID | failed |
| MSEPMSERERWQLELDKLQRGLQGDPFAFLGPQRDPGGEGGVLRAYLPGAQRVELLDEDGATLAELEQSDPGSGLFQRHLERLPPRYRLRVHWPDGVQESEDPYAFGPLLGELDLYLFAEGNHRQLASCLGAQLTRHEGVEGVRFAVWAPNAVRVSVVGDFNGWDGRRHPMRRRYPSGVWELFVPRLGEGELYKYELQGHDGLLPLKADPLALACETPPGTASKTCAALRHEWRDQDWLARRAERQGYAAP | failed |
| MSEPVFPTPEAAEDAFYAAFEARSLDDMMAVWARDDHVACIHPLAAPLNGRAAVAAGWRSMFGAAGRFRLQVKAVHEIRQADHVIRIVDEFLTIGDETAPRPAILATNVYRREADGWRMVLHHASPLQVGAKAGADTPPVVFH | not failed |
| MSEPYGKAFSLMRAEAEPAWRAYTHHAFVEGLKAGTLPREAFLHYLQQDYVFLIHFSRAWALAVVKSETHSEMLAAVGTVNALVAEEMQLHIGICEASGISQEALFATRERAENLAYTRFVLEAGYSGDLLDLLAALAPCVMGYGEIGKRLTAEATSTLYGDWIDTYGGDDYQAACKAVGTLLDDALERRLGAEFTSSPRWSRLCQTFHTATELEVGFWQMGLTP | not failed |
| MSEQNEKEGAVGSLERGLLIIRVLLDAPGPMSLAELAQELALGPSTVHRLLGTLTKLGQVVREPRGKRYLAAPQVLASLSFQHPITLVRLACRSAIEELRERTGETSAFVLFIGYERLVQDFVIGQRLLSPNYQTWLRSPMHGSASGKLLLSTVPENNWVDLIGHEPYQAHTPSTITTYEEMVAEIQAIRRQHYCVSKNEGYEGVSAFGYPVVVLGKTVGCITLTVESASLNESREAFLIQEMLRCVKSIQAVSGSLKLLHDWLF | failed |
| MSERPVQSKLNNALNILKQGDLRGSYAELERLLRDDLENAEIDYTLKGVRFWEDKLEKAKKASTPLERAEMMISQWKPFLAYIHRQGEEKESIIYSLKCAVFTIALEFYADLFNEESELPDAEPYRKIGLCYKVLGNYERALDFLRYAAEIDKNSGSVLADLADCYALYGEIKFAKAFFREAFFIDPEGIELQFLESEIICRLINRVYNLGYRVEDIADWLPIYGVIDGVFNVKRELRAFEVGQLKQNIFLMEGEVQNASQEQKHKLVPRLINHYFWLIDHYVSVNESKSKIDDLLLRIKVLDQNIYNCYMR | failed |
| MSESLDFSPYLERWALQPDGEPFATHSSRLLPVRHRGAAAMLKISSAEEERFGHVLLNWWDGQGAARVLAYDHQALLMERATGGRSLLEMVRRGDDDEATRILCQAIERIHAPRPGPLPELTPLERWFDSLYAAERRYGGLYVDCANAARYLLETAREQRPLHGDIHHGNVLDFGERGWQVIDPKRLYGERGYDYANLFTNPDAKTAQAPGRFERQLEIVIAASGLQRRRLLQWILAWTGLSAAWFDEDGSREETEAELAIARLALANLARTPAQ | failed |
| MSESPTAGRASLAPLREFITGLSALLDEQPGEARILREGGALLARLVARDDWLPDAFAQPHPEYYQQMLLHCDSAERFSIVSFVWGPGQRTPIHDHTVWGLIGMLRGAEYSQPFVLDGSGRPVLHGEPTRLEPGHVEAVSPTVGDIHRVHNAYDDRVSISIHVYGANIGGVRRSVYTEAGERKPFISGYSNPYLPNPWDRSKDSAAS | not failed |
| MSETERTLVIIKPDAVVRGLIGEIISRFEKKGLKIVGMKMIWIDRELAEKHYEEHREKPFFKALIDYITKTPVVVMVLEGRYAVEVVRKMAGATDPKDAAPGTIRGDFGLEVSDAICNVIHASDSKESAEREISLFFKPEELFEYPRAADWFYKKGI | not failed |
| MSETPERGLGSRAGVVLVDRYRLDERIGVGGMGEVWRATDILLSRPVAVKLLHLAQVSDPVSQQRFRTEAQITAALSHPNIAQVYDYGEQDGFSFLVMELITGESLSAIIKRNPGLDPDITLDVVDQAAQALSAAHANGVIHRDIKPGNLLVTEDGTVKLTDFGIARGNESVTLTQTGMVMGTAQYISPEQVSGKPASPLSDIYALGIVAYECLAGHPPFTADTPLALALAHSREPPPPLPDSVPPAVRELVECMLAKDPQERPSSAAEVSQWAQRLRAALNGGDATEALGLVSATAATAVVPAQPGPPTGDSTPVDGPHSGAQAQTWPPPQGKDSDRVAERSAAPNSRLNLPVVFALIATVGAVAVGIFLVGLLGKEPGTNGTPTSHRSVVPTLSRSPDTTENITTDSQTPVPDNPGGQLPPLNDEPEESYSPAPHPEPTTPPQSEYPSPPGDGADSTPDPGEEPGGPSDEDDADGGGAAPGGPTGGTGEESRGSTPP | failed |
| MSEVILDIMNNELVSSLILRELIQYRRRFTHSTKSVSEEESQVTQVQLPRIRTFVDEGRRVELILPAFPVKSPSPYKVLGRMPDMAERLSLIFLNSLCQRIQLYYPPGAHIRICSDGHVFGDLIGTSDETINTYQDEIENLLHELGAVHLSVFNLKDVENMAALTADYGHLRQRLVEDYAESAEEIKEQLMQSEEGLQLYRSITRFLYEDSLRPDYTGSNAALQKDAKKRACGVIQRSWAWGNLLAENFPDAIRLSIHPQPADSLKLGIHMMPTKDDWLTPWHGVAANVNGQFVLMKNTDAQQLAGEVVEIRGTPSHYLVKQSDVA | failed |
| MSEVKKTKVHLISGFLGTGKTTALKSLMAQKDPNEKWVIIVNEFGEIGIDGAVLSDNGIPVAEIAGGCLCCTAGPQMGVTVQKMLRDAKPDRLMIEASGLAHAASVIDELKAKPLDSLLEIGAVFTVVDPRQFINPDYAQQALYKDQIGICDVLAASKTDLCTPEQLAEFHDKAAKLFPPKAKVVEVQNAQLDIQWLDIPVVEKSRYRLKALPDNTMGFQSQGFTFPAGRDFNGEKLTNFFNDLPKMTEGLVRAKGVFQVLGTWVWLNWVDGQWGANQVSWRRDSRFELIAKSFDADLIEQKLKDALELEHHHHHH | not failed |
| MSEVQITFRKAREQDLMTYFNWANDEVTRKNSFGTNKIDLKTHTEWFLKKISSPDSLLLVFEDAAKIPVGQVRIECGEEEAVIGISIDSAFRGKSLSAFMIDSACTEYFRNFTKPIAAHIKATNTASVKAFEKAGFILKEEYTVDQELRFILLRQHV | failed |
| MSFFKLKENNTSFKTEVIAGLTTFLAMVYIIPVNSSIVGNTGMPIEALITATALITIVASAFNAFFANTPVAMSVGMGLNAYFTFAVCLGQNIAWQSALGAVFISSIIFLILSFTHFRLWVIRNIPKDLRLAICAGIGCFIAFLGLSQMGVIMHNKDTLVSIGNFKSPHVLFGIFTLALIIFFWAIKLLGAFILGVLASSIIAWIFHLDNASFPVQIFSWPNFSMENGLGAIFLQLDIKSALNITMIPIILTFFITQLFDSIGTITGVGERGKIFDDPKNGEKKLSKTLMADATGSALGAMTGTSTVTAFVESTTGVESGGRTGLTALVVAICFAFTLFLLPLFKAIPANAIYPVLVMVGILMFMEVKNIDFKDSAIAVASFFTIIMMPFTYSITTGFAFGFLSYLLVRIFKREWDKINLGIIVLSLLSLGNFLLMALQ | failed |
| MSFIVCMSVLGVLLMLLALTSSYLRWMPVTTSAVCLAFGFGIGPLGLDIINLDFKQSREWLECLTEVAVLFSLFGTGIKLRLPLNCKAWHSAYWLAGPVMLATIAGVSVAAHYIFAIDWGVALLLGAMLSPTDPVLAGMVQVNSAQDQDRLRFGLSGEAGLNDGTAFPFVIFAMLYLSSGGVTGDWAQHWLLKDLIWAVPAGLLIGFGMGRGVGHLMIFLRIKNADSTTSPNDFLALALIALAYVVAEGFGAFGFLSVFAAGFGLRQAEMRVTRSELPSEHVAQPVLGHMTAALDQGTVAKADDLSDSQLAAGVMMGDMLAFGSLVERAMEVLLITLLGAALASYWDWRAIGLGLALFCVIRPASVWLLVSQKLLNARQKALVGWFGIRGIGSLYYLCFALSHGLADDVGNVVIGMTLSVVALSILLHGISIQPLLERYERSTAANPDK | failed |
| MSFVKKTKNFFGLDGEADPYMEHSDAYYDEPRYEPAPAYSAPRYEEPIYASARPRAARPMPTHIVPVRLLTYSDAAIKVGDPFRDGDAVVFDMSDMHKGEAKRIIDFAAGLCFALRGQMRKLDGRIFALVPESASVDENDLKHAAGLIHLEHHHHHH | failed |
| MSGADTKKKLVGRHKRVAFMDVAGDGKTYTRMTGFTSMSESKNASEYSRHYVDEESERTDVVGYAPSNDYEFDRYTNDLVQQKISEITDDELLGSDAQVSIVVVDLFDIKTDTPNTCVARKRDWSVVPDNSGDGTDALIYKGSLKANGEKIKGTATTTDNWQTCTFAAD | failed |
| MSGGPVKTPFLSFIIPAYNEEQRLPSYLERVIGFFAGQSYSFEIVVVDDGSSDGTAALVKALMAQHSCLRLEALDRNRGKGFAVKTGMSAAKGQLRVFADADGATPVEEIRRLLDAREQGADIAIGSRAMRSDECIVQGRVHRKIMGTVFNGLIRALAVRGIHDSQCGFKLFTASAAEDIFPRQRITGFGFDVELLFLARRLGYVVVEVPVNWSDVEGTKVRLVRDSFRMLGEVLRIRFTNLTGGYGDIPGKTLEHHHHHH | failed |
| MSGIIATYLIHDDSHNLEKKAEQIALGLTIGSWTHLPHLLQEQLKQHKGNVIHVEELAEHEHTNSYLRKKVKRGIIKIEYPLLNFSPDLPAILTTTFGKLSLDGEVKLIDLTFSDELKKHFPGPKFGIDGIRNLLQVHDRPLLMSIFKGMIGRNIGYLKTQLRDQAIGGVDIVKDDEILFENALTPLTKRIVSGKEVLQSVYETYGHKTLYAVNLTGRTFDLKENAKRAVQAGADILLFNVFAYGLDVLQSLAEDDEIPVPIMAHPAVSGAYSASKLYGVSSPLLLGKLLRYAGADFSLFPSPYGSVALEKEEALAISKYLTEDDASFKKSFSVPSAGIHPGFVPFIVRDFGKDVVINAGGGIHGHPNGAQGGGKAFRTAIDATLQNKPLHEVDDINLHSALQIWGNPSYEVKL | not failed |
